Experiments:
PcrA Mge [1] = target: T1, PcrA Mge (Mycoplasma genitalium strain G37, UniProt P47486 1-703); experiment: EMSA; 22-200 nM protein; 20 mM Tris-HCl pH 7.5, 1 mM DTT, 50 ng/ul BSA, 8 nM DNA, 15 min at room temperature, no Mg2+ or ATP listed; 6% PAGE in 1x TBE; conditions: protein: recombinant; tags: N-terminal MBP; label: 5' 6-FAM
T1 sequence: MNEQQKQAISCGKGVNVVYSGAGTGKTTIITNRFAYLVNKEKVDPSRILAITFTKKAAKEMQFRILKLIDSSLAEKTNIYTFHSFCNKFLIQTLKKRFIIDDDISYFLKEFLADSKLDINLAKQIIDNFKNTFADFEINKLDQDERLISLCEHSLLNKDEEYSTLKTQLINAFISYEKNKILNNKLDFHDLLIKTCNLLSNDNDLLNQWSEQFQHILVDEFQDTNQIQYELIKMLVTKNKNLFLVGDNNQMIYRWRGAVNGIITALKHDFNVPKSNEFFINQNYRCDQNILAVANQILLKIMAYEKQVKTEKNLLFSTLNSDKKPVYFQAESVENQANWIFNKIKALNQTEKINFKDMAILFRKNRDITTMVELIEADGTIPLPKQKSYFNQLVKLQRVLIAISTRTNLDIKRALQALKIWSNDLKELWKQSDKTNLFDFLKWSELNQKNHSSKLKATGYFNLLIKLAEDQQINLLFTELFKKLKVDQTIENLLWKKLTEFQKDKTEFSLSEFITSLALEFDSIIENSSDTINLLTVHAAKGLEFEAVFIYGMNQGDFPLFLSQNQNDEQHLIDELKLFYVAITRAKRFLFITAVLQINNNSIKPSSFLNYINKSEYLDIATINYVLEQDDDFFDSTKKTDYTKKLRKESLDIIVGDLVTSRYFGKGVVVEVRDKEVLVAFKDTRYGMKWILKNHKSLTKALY

PcrA Mpn [2] = target: T2, PcrA Mpn (Mycoplasma pneumoniae strain M129, UniProt P75437 1-715); experiment: as above; conditions: protein: recombinant; tags: N-terminal MBP; label: 5' 6-FAM
T2 sequence: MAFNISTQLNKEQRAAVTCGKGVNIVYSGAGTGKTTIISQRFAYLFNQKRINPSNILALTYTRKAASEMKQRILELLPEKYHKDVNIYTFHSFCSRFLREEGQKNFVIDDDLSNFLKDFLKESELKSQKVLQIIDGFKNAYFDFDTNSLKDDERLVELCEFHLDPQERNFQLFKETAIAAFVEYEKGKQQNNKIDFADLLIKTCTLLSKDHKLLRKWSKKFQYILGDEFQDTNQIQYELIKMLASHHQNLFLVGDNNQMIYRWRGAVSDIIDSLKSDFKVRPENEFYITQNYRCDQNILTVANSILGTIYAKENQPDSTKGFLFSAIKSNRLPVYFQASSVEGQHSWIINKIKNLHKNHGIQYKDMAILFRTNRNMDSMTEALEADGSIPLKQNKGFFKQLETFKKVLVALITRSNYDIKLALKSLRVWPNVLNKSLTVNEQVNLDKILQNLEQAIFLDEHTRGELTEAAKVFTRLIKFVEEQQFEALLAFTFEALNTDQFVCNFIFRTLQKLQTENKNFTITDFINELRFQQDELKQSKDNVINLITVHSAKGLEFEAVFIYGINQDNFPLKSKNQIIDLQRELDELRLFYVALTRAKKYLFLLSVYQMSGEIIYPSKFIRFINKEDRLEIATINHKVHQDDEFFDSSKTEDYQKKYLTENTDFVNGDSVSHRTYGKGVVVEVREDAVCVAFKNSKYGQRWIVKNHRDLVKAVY

PcrAs M129 = target: T3, PcrAs M129 (Mycoplasma pneumoniae strain M129, UniProt P75438 1-529); experiment: EMSA; up to 200 nM protein; 20 mM Tris-HCl pH 7.5, 1 mM DTT, 50 ng/ul BSA, 8 nM DNA, 15 min at room temperature, no Mg2+ or ATP listed; 6% PAGE in 1x TBE; conditions: protein: recombinant, tags: N-terminal MBP
T3 sequence: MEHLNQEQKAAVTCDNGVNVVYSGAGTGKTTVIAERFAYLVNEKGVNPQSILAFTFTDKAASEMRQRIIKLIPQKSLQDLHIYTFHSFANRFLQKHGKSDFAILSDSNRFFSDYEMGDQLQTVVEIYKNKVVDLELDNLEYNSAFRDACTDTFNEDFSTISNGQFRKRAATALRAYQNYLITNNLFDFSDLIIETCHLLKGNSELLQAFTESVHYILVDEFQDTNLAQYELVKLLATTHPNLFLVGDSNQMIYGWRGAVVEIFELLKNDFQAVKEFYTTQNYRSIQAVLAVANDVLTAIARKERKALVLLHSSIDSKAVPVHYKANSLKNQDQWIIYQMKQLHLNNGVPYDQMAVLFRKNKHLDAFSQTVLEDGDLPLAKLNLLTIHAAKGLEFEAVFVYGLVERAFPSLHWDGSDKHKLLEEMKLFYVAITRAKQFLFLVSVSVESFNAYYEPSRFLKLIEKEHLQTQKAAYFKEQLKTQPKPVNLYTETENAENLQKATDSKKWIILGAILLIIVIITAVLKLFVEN

PcrA Mpn [3] = target: T2, PcrA Mpn; experiment: EMSA; 22-200 nM protein; discrete complex III; 20 mM Tris-HCl pH 7.5, 1 mM DTT, 50 ng/ul BSA, 8 nM DNA, 15 min at room temperature, no Mg2+ or ATP listed; 6% PAGE in 1x TBE; conditions: protein: recombinant; tags: N-terminal MBP; label: 5' 6-FAM on one strand; 5' overhang 24 nt
PcrA Mge [4] = target: T1, PcrA Mge; experiment: EMSA; 22-200 nM protein; discrete complex IV; 20 mM Tris-HCl pH 7.5, 1 mM DTT, 50 ng/ul BSA, 8 nM DNA, 15 min at room temperature, no Mg2+ or ATP listed; 6% PAGE in 1x TBE; conditions: protein: recombinant; tags: N-terminal MBP; label: 5' 6-FAM on one strand; 5' overhang 24 nt
PcrA Mge [5] = target: T1, PcrA Mge; experiment: EMSA; 22-200 nM protein; most complexes did not enter gel; 20 mM Tris-HCl pH 7.5, 1 mM DTT, 50 ng/ul BSA, 8 nM DNA, 15 min at room temperature, no Mg2+ or ATP listed; 6% PAGE in 1x TBE; conditions: protein: recombinant; tags: N-terminal MBP; label: 5' 6-FAM on one strand; 3' overhang 24 nt
PcrA Mpn [6] = target: T2, PcrA Mpn; experiment: as above; conditions: protein: recombinant; tags: N-terminal MBP; label: 5' 6-FAM on one strand; 3' overhang 24 nt

B1: oligonucleotide 1 (ssDNA)
DNA: CAAAGTAAGAGCTTCTCGAGCTGCGCAAGGATAGGTCGAATTTTCTCATTTT
binding result (PcrA Mge [1]): binds
binding result (PcrA Mpn [2]): binds
binding result (PcrAs M129; label: 5' 6-FAM): no binding

B2: substrate c (dsDNA)
DNA 1: B1 DNA
DNA 2: AAAATGAGAAAATTCGACCTATCCTTGCGCAGCTCGAGAAGCTCTTACTTTG
binding result (PcrAs M129; label: 5' 6-FAM on one strand, blunt): no binding

B3: substrate b (dsDNA)
DNA 1: B1 DNA
DNA 2: ATCGGATCCATGAATGAACAACAAAAAATGAGAAAATTCGACCTATCCTTGCGCAGCTCGAGAAGCTCTTACTTTG
binding result (PcrAs M129; label: 5' 6-FAM on one strand, 5' overhang 24 nt): no binding
binding result (PcrA Mpn [3]): binds
binding result (PcrA Mge [4]): binds

B4: substrate a (dsDNA)
DNA 1: B1 DNA
DNA 2: AAAATGAGAAAATTCGACCTATCCTTGCGCAGCTCGAGAAGCTCTTACTTTGATCGGATCCATGAATGAACAACAA
binding result (PcrA Mge [5]): binds
binding result (PcrA Mpn [6]): binds
binding result (PcrAs M129; label: 5' 6-FAM on one strand, 3' overhang 24 nt): no binding
